{
  "source": "paper PMC11516162",
  "about": "“A Novel Antigen Design Strategy to Isolate Single‐Domain Antibodies that Target Human Nav1.7 and Reduce Pain in Animal Models” (Advanced Science, 2024)",
  "key": {"rat FC5‐DIE3IR": {"molecular_target": "T1, rat FC5‐DIE3IR (Rattus norvegicus, UniProt O08562, chimera)", "T1 construct": "llama VHH FC5 N-terminal part, as the first part of m2; rat Nav1.7 alpha subunit, the stretch equivalent to the human DIE3IR domain; llama VHH FC5 C-terminal part, as the last part of m2; source: cloned as the human one (pTT5); SEC purified (Superdex 75) for SPR", "assay": "SPR; Biacore T200, 25 °C, HBS‐EP+ (10 mM HEPES pH 7.4, 150 mM NaCl, 3 mM EDTA, 0.05% P20); FC5‐DIE3IR and FC5 amine coupled (300–400 RU) on CM5; VHH DI‐D monomer fractions flowed at 312 nM to 5 µM, single cycle kinetics; KD by steady state analysis", "conditions": "both partners purified"}, "human FC5‐DIE3IR [1]": {"molecular_target": "T2, human FC5‐DIE3IR (Homo sapiens, chimera, glycosylated (about up to 50%))", "T2 construct": "llama VHH FC5 from its N-terminus to residue 101 (three CDR3 residues kept on the N-terminal side of the graft); human Nav1.7 alpha subunit, 70 residues of extracellular loop 3 of domain DI (DIE3IR), put in place of Ser102-Leu107 of the CDR3 of FC5; llama VHH FC5 from residue 108 to its C-terminus (four CDR3 residues kept on the C-terminal side of the graft); Two disulfide bonds in the grafted …", "assay": "SPR; Biacore T200, 25 °C, HBS‐EP+ (10 mM HEPES pH 7.4, 150 mM NaCl, 3 mM EDTA, 0.05% P20); FC5‐DIE3IR and FC5 amine coupled (300–400 RU) on CM5; VHH DI‐D monomer fractions flowed at 312 nM to 5 µM, single cycle kinetics; KD by steady state analysis", "conditions": "both partners purified"}, "mouse FC5‐DIE3IR": {"molecular_target": "T3, mouse FC5‐DIE3IR (Mus musculus, UniProt Q62205, chimera)", "T3 construct": "llama VHH FC5 N-terminal part, as the first part of m2; mouse Nav1.7 alpha subunit, the stretch equivalent to the human DIE3IR domain; llama VHH FC5 C-terminal part, as the last part of m2; source: cloned as the human one (pTT5); SEC purified (Superdex 75) for SPR", "assay": "SPR; Biacore T200, 25 °C, HBS‐EP+ (10 mM HEPES pH 7.4, 150 mM NaCl, 3 mM EDTA, 0.05% P20); FC5‐DIE3IR and FC5 amine coupled (300–400 RU) on CM5; VHH DI‐D monomer fractions flowed at 312 nM to 5 µM, single cycle kinetics; KD by steady state analysis", "conditions": "both partners purified"}, "[2]": {"molecular_target": "Mouse FC5-DIE3IR (llama | mouse)", "assay": "SPR; Biacore T200, 25 °C, HBS-EP+ (10 mM HEPES pH 7.4, 150 mM NaCl, 3 mM EDTA, 0.05% P20); FC5-DIE3IR (human, mouse, rat) and FC5 amine coupled (300-400 RU) on CM5; SEC-purified monomeric VHH DI-D flowed over at 312 nM to 5 µM, single cycle kinetics; KD by steady state analysis"}, "[3]": {"molecular_target": "Rat FC5-DIE3IR (llama | rat)", "assay": "SPR; Biacore T200, 25 °C, HBS-EP+ (10 mM HEPES pH 7.4, 150 mM NaCl, 3 mM EDTA, 0.05% P20); FC5-DIE3IR (human, mouse, rat) and FC5 amine coupled (300-400 RU) on CM5; SEC-purified monomeric VHH DI-D flowed over at 312 nM to 5 µM, single cycle kinetics; KD by steady state analysis"}, "human FC5‐DIE3IR [4]": {"molecular_target": "T2, human FC5‐DIE3IR", "assay": "SPR; Biacore T200, 25 °C, HBS-EP+ (10 mM HEPES pH 7.4, 150 mM NaCl, 3 mM EDTA, 0.05% P20); FC5-DIE3IR (human, mouse, rat) and FC5 amine coupled (300-400 RU) on CM5; SEC-purified monomeric VHH DI-D flowed over at 312 nM to 5 µM, single cycle kinetics; KD by steady state analysis"}, "[5]": {"molecular_target": "mouse Nav1.7 (mouse (endogenous in CD-1 mice)) (UniProt Q62205)"}, "[6]": {"molecular_target": "Mouse FC5-DIE3IR (llama | mouse)", "assay": "SPR; Biacore T200, 25 °C, HBS-EP+ (10 mM HEPES pH 7.4, 150 mM NaCl, 3 mM EDTA, 0.05% P20); FC5-DIE3IR (human, mouse, rat) and FC5 amine coupled (300-400 RU) on CM5; SEC-purified monomeric VHH DI-D flowed over at 312 nM to 5 µM, single cycle kinetics; KD by steady state analysis", "remark": "listed apart in the source"}, "[7]": {"molecular_target": "Rat FC5-DIE3IR (llama | rat)", "assay": "SPR; Biacore T200, 25 °C, HBS-EP+ (10 mM HEPES pH 7.4, 150 mM NaCl, 3 mM EDTA, 0.05% P20); FC5-DIE3IR (human, mouse, rat) and FC5 amine coupled (300-400 RU) on CM5; SEC-purified monomeric VHH DI-D flowed over at 312 nM to 5 µM, single cycle kinetics; KD by steady state analysis", "remark": "listed apart in the source"}, "human FC5‐DIE3IR [8]": {"molecular_target": "T2, human FC5‐DIE3IR", "assay": "SPR; Biacore T200, 25 °C, HBS-EP+ (10 mM HEPES pH 7.4, 150 mM NaCl, 3 mM EDTA, 0.05% P20); FC5-DIE3IR (human, mouse, rat) and FC5 amine coupled (300-400 RU) on CM5; SEC-purified monomeric VHH DI-D flowed over at 312 nM to 5 µM, single cycle kinetics; KD by steady state analysis", "remark": "listed apart in the source"}, "[9]": {"molecular_target": "Mouse FC5-DIE3IR (llama | mouse)", "assay": "SPR; Biacore T200, 25 °C, HBS-EP+ (10 mM HEPES pH 7.4, 150 mM NaCl, 3 mM EDTA, 0.05% P20); FC5-DIE3IR (human, mouse, rat) and FC5 amine coupled (300-400 RU) on CM5; SEC-purified monomeric VHH DI-D flowed over at 312 nM to 5 µM, single cycle kinetics; KD by steady state analysis", "remark": "listed apart in the source"}, "human FC5‐DIE3IR [10]": {"molecular_target": "T2, human FC5‐DIE3IR", "assay": "SPR; Biacore T200, 25 °C, HBS-EP+ (10 mM HEPES pH 7.4, 150 mM NaCl, 3 mM EDTA, 0.05% P20); FC5-DIE3IR (human, mouse, rat) and FC5 amine coupled (300-400 RU) on CM5; SEC-purified monomeric VHH DI-D flowed over at 312 nM to 5 µM, single cycle kinetics; KD by steady state analysis", "remark": "listed apart in the source"}, "[11]": {"molecular_target": "rat, mouse and human FC5‐DIE3IR", "assay": "SPR; Biacore T200, 25 °C, HBS‐EP+ (10 mM HEPES pH 7.4, 150 mM NaCl, 3 mM EDTA, 0.05% P20); FC5‐DIE3IR and FC5 amine coupled (300–400 RU) on CM5; VHH DI‐D monomer fractions flowed at 312 nM to 5 µM, single cycle kinetics; KD by steady state analysis"}},
  "note": "Where two headings read alike, the source gives them in different places.",
  "data": [
    {"binder": "VHH DI‐D (VHH, CDR3 of VHH DI-D as printed in the discussion; Isolated from a naive llama, alpaca and camel phage library (LAC-M) by panning on FC5-DIE3IR; source: E. coli, purified by IMAC (gene synthesized and cloned by GenScript; pSJF2 expression vector); SEC-purified monomer fractions for SPR) VHH: QVKLEESGGGLVQPGGSLKLSCVASGFAFSSAPMDWVRKAPGKDVEWLSTIESDQDHTIYYANSVKGRFTISRDDVQNILYLQMNDLKIEDTATYYCQKRGEKKTRGQGTQVTVSS", "values": [
      {"measurement": "binding result", "setting": "rat FC5‐DIE3IR", "value": "binds"},
      {"measurement": "binding result", "setting": "human FC5‐DIE3IR [1]", "value": "binds"},
      {"measurement": "binding result", "setting": "mouse FC5‐DIE3IR", "value": "binds"},
      {"measurement": "Kd", "setting": "[2]", "value": 1700, "unit": "nM"},
      {"measurement": "Kd", "setting": "[3]", "value": 1590, "unit": "nM"},
      {"measurement": "Kd", "setting": "human FC5‐DIE3IR [4]", "value": 1720, "unit": "nM"},
      {"measurement": "time mice spend in pain behaviors, mouse OD1 model, VHH DI‐D (50 µg) pre‐mixed 30 min with FC5‐DIE3IR (200 µg): no reduction", "setting": "[5]", "value": 312, "unit": "s"},
      {"measurement": "Kd", "setting": "[6]", "value": 1660, "unit": "nM"},
      {"measurement": "Kd", "setting": "[7]", "value": 1560, "unit": "nM"},
      {"measurement": "Kd", "setting": "human FC5‐DIE3IR [8]", "value": 1700, "unit": "nM"},
      {"measurement": "Kd", "setting": "[9]", "value": 1680, "unit": "nM"},
      {"measurement": "Kd", "setting": "human FC5‐DIE3IR [10]", "value": 1710, "unit": "nM"},
      {"measurement": "Kd", "setting": "[11]", "value": "1560 to 1720", "unit": "nM"}
    ]}
  ]
}
